One block for each molecule: values may come before it.
Tests used:
EGFR present in A431 = target: T1, EGFR present in A431 (Homo sapiens, UniProt P00533); assay: Tumor cell targeting test (confocal imaging of protein binding to A431 cells); type: cell-based; settings: A431 cells treated with 7.5 or 15 ug/ml for one hour; fluorescent imaging, FIG. 2; positive control Erbitux
T1 construct: EGFR present in A431; host or cells: A431

MDA-MB-231 xenograft = assay: Anticancer effect in MDA-MB-231 xenograft mouse model; type: in vivo, BALB/c nude mouse; settings: 75 uM/0.1 ml/mouse administered to the tumor tissue once a day
Protocol: To examine the anticancer effect of the conjugate of Example 2, a xenograft mouse model was employed. The xenograft mouse model was prepared by an […] injection of intractable breast cancer cell line MDA-MB-231 into breast tissue of 6-week old BALB/c nude mouse to form a tumor tissue.
In particular, 8×10^6 cells (in 0.08 ml of PBS with matrigel) of MDA-MB-231 (ATCC) were […] of 6-week old BALB/c nude mouse to prepare a xenograft mouse model (Orthotopic mouse model). When the tumor size reaches […], the xenograft mouse model was used in the following experiment.
The obtained results are shown in FIG. 7, and the degree (%) of tumor size reduction (tumor growth inhibition; TGI) compared to the buffer administered group calculated from the results of FIG. 7 was shown in Table 4: […]

A431 cells = assay: Cell cycle arrest test (gene transfection, DNA content by FACS); type: cell-based; settings: gene transfected into A431 cells with Lipofectamine 2000; compared to p16WT; FIGS. 3 and 4
Protocol: A vector containing a gene encoding ‘p16M7’ or ‘p16WT’ (wild-type) was transfected into A431 cells (ATCC) by liposomal transfection method using Lipofectamine 2000 (Invitrogen) (see Example 1). The transfection was performed according to a manual provided by Invitrogen. 24 hours after the transfection, the medium was exchanged with a fresh medium. At 24 hours 48 hours thereafter, DNA contents were measured by FACS.
After transfecting the p16M7 gene or p16WT gene into cells using Lipo2000, the presence of cell cycle arrest was observed. […] For labeling, pEGFP-C2 vector (Clontech) for p16WT and p16M7 (indicated as “p16 Mut” in FIG. 3). […] FIG. 4 contains graphs quantitatively showing the degree of cell cycle arrest of FIG. 3, wherein “% frequency” of Y axis refers to a value of cell population obtained through Flow jo software, each symbol in X axis refers to the follows: C2-6: using EGFP only (6 ul), C2-10: using EGFP only (10 ul), Mut: using p16M7 (6 ul or 10 ul) and WT: using p16WT (6 ul or 10 ul).

binding ability to EGFR present in A431 (EGFR present in A431): little binding ability
B1: Darpin: Negative control; Mock Darpin having no binding target; SEQ ID NO: 43 (protein)
chain: GSDLGKKLLEAARAGQDDEVRILMANGADVNAEDKVGLTPLHLAAMNDHLEIVEVLLKNGADVNAIDAIGETPLHLVAMYGHLEIVEVLLKHGADVNAQDKFGKTAFDISIDNGNEDLAEILQKLN
modifications: Synthetic Non-EGFR targeting DARPin

B2: D(EGFR)-M9R-p16M7: Comparison conjugate lacking MTS-NLS: SEQ ID NO: 7-SEQ ID NO: 26-SEQ ID NO: 2 (protein)
chain: DLGKKLLEAARAGQDDEVRILMANGADVNADDTWGWTPLHLAAYQGHLEIVEVLLKNGADVNAYDYIGWTPLHLAADGHLEIVEVLLKNGADVNASDYIGDTPLHLAAHNGHLEIVEVLLKHGADVNAQDKFGKTAFDISIDNGNEDLAEILQSGKIPRTLTAMEPAAGSSMEPSADKLATAAARGRVEEVRALLEAGADPNAPNSYGRRPIQVMMMGSARVAELLLKHGAEPNSADPATSTRPVHDAAREGFLDTLVVLHRAGARLDARDAWGRTPVDLAEELGHRDVARYLRAAAGGTRGSNHARIDAAEGPSDIPD
modifications: Synthetic anti-EGFR DARPin-01; Synthetic MMP9 cleavage region; Synthetic Human p16 Variant
degree (%) of tumor size reduction (tumor growth inhibition; TGI) compared to the buffer administered group (MDA-MB-231 xenograft; n=10, calculated from FIG. 7): 50.0%

B3: p16M7: Human p16 protein variant with seven substitutions for improved solubility (SEQ ID NO: 2) (protein)
chain: MEPAAGSSMEPSADKLATAAARGRVEEVRALLEAGADPNAPNSYGRRPIQVMMMGSARVAELLLKHGAEPNSADPATSTRPVHDAAREGFLDTLVVLHRAGARLDARDAWGRTPVDLAEELGHRDVARYLRAAAGGTRGSNHARIDAAEGPSDIPD
modifications: Synthetic Human p16 Variant
cell cycle arrest effect (A431 cells): maintaining the cell cycle arrest effect

B4: D(EGFR)-M9R-MTS-NLS-p16M7: Conjugate: anti-EGFR DARPin (SEQ ID NO: 7), MMP9 cleavage site M9R, MTS-NLS fusion peptide, p16 variant p16M7; SEQ ID NO: 35 (protein)
chain: DLGKKLLEAARAGQDDEVRILMANGADVNADDTWGWTPLHLAAYQGHLEIVEVLLKNGADVNAYDYIGWTPLHLAADGHLEIVEVLLKNGADVNASDYIGDTPLHLAAHNGHLEIVEVLLKHGADVNAQDKFGKTAFDISIDNGNEDLAEILQSGKIPRTLTAAAVALLPAVLLALLAPKKKRKMEPAAGSSMEPSADKLATAAARGRVEEVRALLEAGADPNAPNSYGRRPIQVMMMGSARVAELLLKHGAEPNSADPATSTRPVHDAAREGFLDTLVVLHRAGARLDARDAWGRTPVDLAEELGHRDVARYLRAAAGGTRGSNHARIDAAEGPSDIPD
modifications: Synthetic Conjugate (anti-EGFR DARPin-M9R- MTS-NLS-p16M7)
increased anticancer effect compared to the control [Darpin(EGFR)] (MDA-MB-231 xenograft; versus D(EGFR) group): about 21.4%

— patent US9617344B2, “Fusion protein comprising targeting moiety, cleavage site, and cell membrane penetrating domain, and use thereof” (Samsung Electronics Co., Ltd., priority 2014, dated 2017)
